From PMC9118981

Assays:
[1] = substrate: O=c1[nH]c(=O)[nH]c(=O)[nH]1; experiment: purified protein; type: biochemical, Bradyrhizobium diazoefficiens; details: 50.0 °C
[2] = substrate: O=c1[nH]c(=O)[nH]c(=O)[nH]1; experiment: purified protein; type: biochemical, Pseudolabrys sp. Root1462; details: 50.0 °C

B1: CAH-BD (Bradyrhizobium diazoefficiens USDA 110) (protein)
chain: MRTTSVGVFKIVTKGPGDVSGLMAMIGSGAIDPKSILAVLGKTEGNGGVNDFTREYAVAALCTALAPQLGLSPEEVEQRIAFVMSGGTEGVLSPHITVFTRREVERRPAGLSGKRLSIGMAHTRDFLPEELGRAAQIAETAAAVKAAMADAGIADPADVHFVQIKCPLLTSDRVEAASARGNKTATTSAYGSMAYSRGASALGVAVALGETGSDISDGDVLRRYDLFSKVASTSAGIELMHNVVIVLGNSAASASEFEIGHAVMNDAIDAAAVTSALKCVGLGVAPQAEAGRELVNIFAKAEASPDGSVRGFRHTMLEDTDISSTRHARAAVGGLIAGLAGTGAVYVSGGAEHQGPAGGGPVAVIARLSD
notes: codon-optimised gene expressed in Bacillus subtilis, purified; no tag mentioned
In the case of B1, the Km [1] is reported as 103 ± 29 µM and the kcat [1] is reported as 10.6 ± 1.9 s⁻¹.

B2: CAH-PR (Pseudolabrys sp. Root1462) (protein)
chain: MPIAKVHRISASSPNDVSGLEAAIASGRIDPKGVIAVLGKTEGNGLVNDFSRGLATTALTLLFERHLPQAEAAQICLVMSGGTEGGMAPHWIVFERGKGEGGRSPALAIGRAHTLQLPYEQLGRLGEVDQVAAGVRAAMEDAGIADPADVHFVQIKCPLLTAQRIAEAEARGAAVATRDTLKSMSLSRAASALGAAVALGEIDRAAITEAQIGSDWSLWSGRASTSAGIELVNHEIVVLGMSKDWSGPLAIDHAVMRDGIDIEPVRAALQRLGLGAAGQLDPAQRNKMVALLAKAEASHDGRLRGHRHTMLDDSDIASTRHARGFVCGALAGLVGHAEIYVSGGAEHQGPDGGGPVAVIVDRG
notes: as for B1
B2 gave a Km [2] of 115 ± 36 µM and a kcat [2] of 10.1 ± 2.7 s⁻¹.
